The values that follow come from patent US9371520B2.

The assay has as its target purified native cellulosome of C. thermocellum ATCC 27405 (C. thermocellum ATCC 27405) (UniProt Q06851).

Regarding “wild-type (WT) BglA, β-glucosidase A from C. thermocellum, as cloned (enzyme)”, the hydrolysis of microcrystalline cellulose and pre-treated switchgrass (soluble reducing sugars) is 2.06 fold.

For the substance “BglA-CohII (chimaeric C. thermocellum β-glucosidase A fused to the type-II cohesin module of the Orf2p anchoring protein) (enzyme)”, the hydrolysis of microcrystalline cellulose and pre-treated switchgrass (soluble reducing sugars) is 2.68 fold.
